Bridge positions count the residues as written; N and C are the ends. Ends that are not written are not given here.
Columns and labels:
[1] = target: T1, rat collagen (acid soluble, type I, rat tail, Upstate 08-115) (rat, UniProt P02454 152-1207; P02466 86-1125); test: dried collagen assay
T1 construct: gelled and dried as a fibril film in the dried collagen assay; also called dried rat collagen; insoluble rat collagen

[2] = target: T2, human collagen type I (acid soluble, extracted from placenta, Sigma C7774) (human, UniProt P02452 162-1218; P08123 80-1119); test: dried collagen assay
T2 construct: gelled and dried as a fibril film in the dried collagen assay; also called dried human collagen; h-Collagen
T2 sequence (P02452 162-1218 limits assumed, chain 1 of 2): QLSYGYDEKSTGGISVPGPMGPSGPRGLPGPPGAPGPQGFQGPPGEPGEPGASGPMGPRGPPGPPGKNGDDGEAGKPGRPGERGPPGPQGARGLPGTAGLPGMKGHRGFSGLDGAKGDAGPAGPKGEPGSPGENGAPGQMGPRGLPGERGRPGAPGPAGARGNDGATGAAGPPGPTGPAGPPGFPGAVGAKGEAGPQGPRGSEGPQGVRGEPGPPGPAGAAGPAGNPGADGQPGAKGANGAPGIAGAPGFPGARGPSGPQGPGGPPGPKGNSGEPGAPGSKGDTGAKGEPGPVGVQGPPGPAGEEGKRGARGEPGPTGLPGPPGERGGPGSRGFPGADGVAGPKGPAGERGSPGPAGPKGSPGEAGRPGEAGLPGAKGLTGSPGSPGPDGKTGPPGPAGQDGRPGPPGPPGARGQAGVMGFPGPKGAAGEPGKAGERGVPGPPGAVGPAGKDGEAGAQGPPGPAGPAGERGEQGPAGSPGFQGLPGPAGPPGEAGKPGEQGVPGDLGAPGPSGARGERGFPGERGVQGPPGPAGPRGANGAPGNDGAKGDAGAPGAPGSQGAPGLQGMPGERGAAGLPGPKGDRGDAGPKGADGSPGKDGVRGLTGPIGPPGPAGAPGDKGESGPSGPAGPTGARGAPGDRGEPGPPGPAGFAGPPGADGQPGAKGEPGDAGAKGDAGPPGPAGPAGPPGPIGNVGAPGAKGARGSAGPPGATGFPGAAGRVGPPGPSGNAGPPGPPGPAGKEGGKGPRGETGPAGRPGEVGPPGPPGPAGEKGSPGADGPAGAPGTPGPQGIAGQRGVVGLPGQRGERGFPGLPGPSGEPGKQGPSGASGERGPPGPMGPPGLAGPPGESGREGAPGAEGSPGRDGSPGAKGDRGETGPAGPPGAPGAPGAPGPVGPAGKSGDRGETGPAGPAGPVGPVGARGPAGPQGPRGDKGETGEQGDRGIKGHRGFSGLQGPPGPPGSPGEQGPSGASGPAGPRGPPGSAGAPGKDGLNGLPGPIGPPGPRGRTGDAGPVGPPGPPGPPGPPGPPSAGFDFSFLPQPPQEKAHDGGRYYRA
T2 sequence (P08123 80-1119 limits assumed, chain 2 of 2): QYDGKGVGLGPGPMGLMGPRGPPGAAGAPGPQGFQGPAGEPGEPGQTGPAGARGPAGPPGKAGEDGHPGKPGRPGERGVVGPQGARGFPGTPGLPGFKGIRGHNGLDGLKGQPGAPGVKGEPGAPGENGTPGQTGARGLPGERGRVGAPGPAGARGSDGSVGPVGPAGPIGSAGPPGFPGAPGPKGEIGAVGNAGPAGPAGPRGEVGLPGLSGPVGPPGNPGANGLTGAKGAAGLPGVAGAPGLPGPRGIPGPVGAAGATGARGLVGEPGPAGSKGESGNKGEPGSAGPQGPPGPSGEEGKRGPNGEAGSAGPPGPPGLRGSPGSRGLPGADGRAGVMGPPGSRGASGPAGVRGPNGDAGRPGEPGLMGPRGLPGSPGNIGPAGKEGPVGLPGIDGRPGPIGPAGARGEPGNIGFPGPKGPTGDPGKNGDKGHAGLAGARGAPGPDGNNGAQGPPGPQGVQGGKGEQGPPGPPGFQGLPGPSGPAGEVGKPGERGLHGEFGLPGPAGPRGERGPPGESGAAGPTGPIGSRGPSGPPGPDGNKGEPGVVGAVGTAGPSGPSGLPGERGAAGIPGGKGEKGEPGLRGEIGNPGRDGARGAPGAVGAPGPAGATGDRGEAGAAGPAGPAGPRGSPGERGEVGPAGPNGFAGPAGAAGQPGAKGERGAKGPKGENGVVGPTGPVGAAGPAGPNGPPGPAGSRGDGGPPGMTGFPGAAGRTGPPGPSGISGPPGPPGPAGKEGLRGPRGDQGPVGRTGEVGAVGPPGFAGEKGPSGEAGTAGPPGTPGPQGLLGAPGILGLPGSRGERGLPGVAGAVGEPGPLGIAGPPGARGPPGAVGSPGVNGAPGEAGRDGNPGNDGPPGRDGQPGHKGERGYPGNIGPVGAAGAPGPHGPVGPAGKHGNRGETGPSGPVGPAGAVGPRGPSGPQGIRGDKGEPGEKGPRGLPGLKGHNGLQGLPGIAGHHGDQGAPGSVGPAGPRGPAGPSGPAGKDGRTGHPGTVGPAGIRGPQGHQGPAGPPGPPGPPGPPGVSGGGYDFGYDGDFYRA

T1 sequence (P02454 152-1207, chain 1 of 2): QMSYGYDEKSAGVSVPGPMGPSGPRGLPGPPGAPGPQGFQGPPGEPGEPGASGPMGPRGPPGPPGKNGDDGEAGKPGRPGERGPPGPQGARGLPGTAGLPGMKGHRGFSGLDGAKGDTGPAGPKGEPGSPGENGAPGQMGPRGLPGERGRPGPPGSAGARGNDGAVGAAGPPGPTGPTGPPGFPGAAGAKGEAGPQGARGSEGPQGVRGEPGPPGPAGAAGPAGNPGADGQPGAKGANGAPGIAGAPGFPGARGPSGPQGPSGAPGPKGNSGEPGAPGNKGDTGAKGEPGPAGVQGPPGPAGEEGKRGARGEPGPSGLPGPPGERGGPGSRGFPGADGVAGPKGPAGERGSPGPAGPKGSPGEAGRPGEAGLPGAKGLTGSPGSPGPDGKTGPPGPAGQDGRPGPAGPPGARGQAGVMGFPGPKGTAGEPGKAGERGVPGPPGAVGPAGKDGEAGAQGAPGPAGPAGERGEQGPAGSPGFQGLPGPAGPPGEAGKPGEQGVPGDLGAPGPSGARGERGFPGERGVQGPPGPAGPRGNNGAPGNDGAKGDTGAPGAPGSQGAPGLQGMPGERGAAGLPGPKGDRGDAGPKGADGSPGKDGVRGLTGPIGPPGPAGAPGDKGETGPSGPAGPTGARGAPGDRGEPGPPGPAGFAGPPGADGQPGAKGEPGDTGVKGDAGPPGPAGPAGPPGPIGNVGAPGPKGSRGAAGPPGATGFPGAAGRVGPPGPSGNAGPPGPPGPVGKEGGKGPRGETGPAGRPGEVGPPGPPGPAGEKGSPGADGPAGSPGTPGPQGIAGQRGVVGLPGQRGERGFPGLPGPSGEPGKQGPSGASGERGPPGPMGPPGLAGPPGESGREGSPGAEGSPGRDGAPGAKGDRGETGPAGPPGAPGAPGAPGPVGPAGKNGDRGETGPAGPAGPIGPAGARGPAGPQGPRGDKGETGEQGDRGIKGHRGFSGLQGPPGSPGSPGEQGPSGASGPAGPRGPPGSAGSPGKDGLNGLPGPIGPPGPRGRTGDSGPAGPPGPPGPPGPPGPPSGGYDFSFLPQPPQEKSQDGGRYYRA
T1 sequence (P02466 86-1125, chain 2 of 2): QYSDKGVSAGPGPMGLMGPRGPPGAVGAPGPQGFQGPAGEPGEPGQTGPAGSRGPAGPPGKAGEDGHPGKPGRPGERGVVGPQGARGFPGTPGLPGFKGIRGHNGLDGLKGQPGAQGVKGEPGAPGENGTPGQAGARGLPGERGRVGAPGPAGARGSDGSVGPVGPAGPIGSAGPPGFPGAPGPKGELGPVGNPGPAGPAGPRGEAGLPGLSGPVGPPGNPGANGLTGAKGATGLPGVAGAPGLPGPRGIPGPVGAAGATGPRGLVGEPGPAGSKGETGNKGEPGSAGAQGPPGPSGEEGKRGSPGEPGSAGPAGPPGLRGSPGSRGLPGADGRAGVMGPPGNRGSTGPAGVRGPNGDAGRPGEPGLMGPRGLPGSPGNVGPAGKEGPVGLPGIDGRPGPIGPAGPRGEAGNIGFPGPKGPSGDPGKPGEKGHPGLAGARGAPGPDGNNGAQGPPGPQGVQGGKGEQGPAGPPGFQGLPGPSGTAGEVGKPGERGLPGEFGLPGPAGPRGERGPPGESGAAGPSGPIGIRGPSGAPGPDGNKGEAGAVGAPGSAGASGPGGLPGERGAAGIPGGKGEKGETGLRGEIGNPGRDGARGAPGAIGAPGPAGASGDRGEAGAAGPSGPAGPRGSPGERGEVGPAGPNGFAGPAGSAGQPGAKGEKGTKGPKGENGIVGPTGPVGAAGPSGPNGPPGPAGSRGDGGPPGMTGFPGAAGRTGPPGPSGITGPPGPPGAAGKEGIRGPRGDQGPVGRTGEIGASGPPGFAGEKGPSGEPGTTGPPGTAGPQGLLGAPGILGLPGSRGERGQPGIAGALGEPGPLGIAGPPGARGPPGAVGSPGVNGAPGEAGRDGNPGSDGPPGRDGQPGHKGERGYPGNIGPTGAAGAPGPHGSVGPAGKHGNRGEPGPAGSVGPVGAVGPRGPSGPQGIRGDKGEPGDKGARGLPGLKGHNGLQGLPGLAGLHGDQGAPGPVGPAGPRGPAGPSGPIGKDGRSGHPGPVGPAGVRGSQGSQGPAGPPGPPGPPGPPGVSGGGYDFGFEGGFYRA

Row | % Collagen Binding [1] | % Collagen Binding [2] | Binder
1 | 6% | – | YHACYQAGCYIW (disulfide 4-9; not fully specified (C-terminus)) [SEQ ID NO: 107]
2 | 24% | 0% | YHASYQAGSWIW (not fully specified) [SEQ ID NO: 111]

From patent US20080058636A1 (EPIX PHARMACEUTICALS, published 2008)
